# Data as given in paper PMC5234850 (Cell reports, 2017).
# T1: human Mre11 core (2-411aa), N-terminal his-tagged (human, UniProt P49959 2-411)
# T1 sequence (looked up): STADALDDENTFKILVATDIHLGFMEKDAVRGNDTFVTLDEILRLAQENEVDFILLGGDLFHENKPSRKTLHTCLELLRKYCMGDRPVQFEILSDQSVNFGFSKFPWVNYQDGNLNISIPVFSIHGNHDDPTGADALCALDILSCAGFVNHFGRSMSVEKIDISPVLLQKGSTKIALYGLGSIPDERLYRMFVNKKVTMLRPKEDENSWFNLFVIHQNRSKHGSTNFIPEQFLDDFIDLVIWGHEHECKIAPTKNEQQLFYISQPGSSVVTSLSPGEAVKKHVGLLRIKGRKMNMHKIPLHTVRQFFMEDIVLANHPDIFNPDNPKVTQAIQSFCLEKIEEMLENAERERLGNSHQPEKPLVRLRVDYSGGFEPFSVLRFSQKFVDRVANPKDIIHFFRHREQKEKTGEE
# Experiments:
# [1] = target: human Mre11 core (2-411aa), N-terminal his-tagged (human) (UniProt P49959); test: SEC
# [2] = target: T1, human Mre11 core (2-411aa), N-terminal …; test: SEC
stoichiometry N [1],binding result [2],Molecule
2,,"human Mre11 core (2-411aa), N-terminal his-tagged (from UniProt P49959 2-411) (domain or fragment)"
,binds,"human Nbs1 F4 (622-729aa) fused to maltose binding protein (domain or fragment, UniProt O60934 622-729, looked up) KKRELKEDSLWSAKEISNNDKLQDDSEMLPKKLLLTEFRSLVIKNSTSRNPSGINDDYGQLKNFKKFKKVTYPGAGKLPHIIGGSDLIAHHARKNTELEEWLRQEMEV"
